{
  "source": "patent US20220332804A1",
  "about": "(CSL INNOVATION, published 2022)",
  "binders": {"B1": {"name": "RF16-242 (antibody, human IgG4 S228P, lambda, V domains shown)", "VH": "EVQLLQSGAEVKKPGESLKISCKGSGYSFTSYWIGWVRQMPGKGLEWMGIIYPGDSDTRYSPSFQGQVTISADKSISTAYLQWSSLKASDTAMYYCARRGHYGDYFDYWGQGTLVTVSS", "VL": "SYELTQPPSVSVSPGQTARITCSGDALPKKYAYWYHQKSGQAPVLVIYEDRRRPSEIPERFSGSSSGTMATLTITGAQVEDEGVYFCYSRDRAGNQRVFGGGTQLTVLG", "notes": "pH-dependent anti-C2 antibody from a phage display library"}},
  "assay_in_all_cases": "SPR, antibody captured, C2 as analyte;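 note: biacore at 37 °C, anti-C2 mAbs held by immobilised goat anti-human IgG, C2 alanine or serine mutants injected, double-referenced sensorgrams fitted to a 1:1 kinetic or steady-state model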",
  "key": {"human C2 N327A": {"target": "T1, human C2 N327A (human, UniProt P06681 21-752)", "T1 sequence": "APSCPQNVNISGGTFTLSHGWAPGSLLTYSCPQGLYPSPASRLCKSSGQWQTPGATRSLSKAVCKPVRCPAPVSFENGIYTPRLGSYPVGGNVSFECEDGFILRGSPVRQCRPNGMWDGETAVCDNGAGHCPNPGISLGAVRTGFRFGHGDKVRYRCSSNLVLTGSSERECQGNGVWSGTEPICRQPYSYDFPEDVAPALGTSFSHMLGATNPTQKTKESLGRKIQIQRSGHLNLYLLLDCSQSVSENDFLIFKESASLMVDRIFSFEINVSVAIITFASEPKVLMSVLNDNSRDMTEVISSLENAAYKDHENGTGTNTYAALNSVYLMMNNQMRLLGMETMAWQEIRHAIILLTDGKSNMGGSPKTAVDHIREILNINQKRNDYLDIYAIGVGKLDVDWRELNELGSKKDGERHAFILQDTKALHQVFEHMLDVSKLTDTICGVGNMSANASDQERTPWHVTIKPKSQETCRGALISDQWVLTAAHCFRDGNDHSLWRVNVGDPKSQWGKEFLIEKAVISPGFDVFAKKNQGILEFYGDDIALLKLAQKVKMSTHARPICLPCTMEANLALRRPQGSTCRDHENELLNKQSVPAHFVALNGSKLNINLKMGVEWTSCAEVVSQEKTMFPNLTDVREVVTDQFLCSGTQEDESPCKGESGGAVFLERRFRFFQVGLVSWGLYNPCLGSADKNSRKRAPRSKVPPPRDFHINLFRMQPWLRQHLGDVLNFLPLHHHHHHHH"}, "human C2 K430A": {"target": "T2, human C2 K430A (human, UniProt P06681 21-752)", "T2 sequence": "T1 sequence with A307N, K410A"}, "human C2 L439A": {"target": "T3, human C2 L439A (human, UniProt P06681 21-752)", "T3 sequence": "T1 sequence with A307N, L419A"}, "human C2 S469A": {"target": "T4, human C2 S469A (human, UniProt P06681 21-752)", "T4 sequence": "T1 sequence with A307N, S449A"}},
  "note": "Changes are numbered by the printed parent chain.",
  "data": [
    {"binder": "B1", "values": [
      {"measurement": "Kd", "setting": "human C2 N327A", "result": 37.5, "unit": "nM"},
      {"measurement": "Kd", "setting": "human C2 K430A", "result": 91, "unit": "nM"},
      {"measurement": "Kd", "setting": "human C2 L439A", "result": 170, "unit": "nM"},
      {"measurement": "Kd", "setting": "human C2 S469A", "result": 21.4, "unit": "nM"}
    ]}
  ]
}
